# Measured values: patent US20150087577A1 (POLYPHOR, published 2015)
# Bridges are numbered along the chain shown (N, C = ends). [ ]: non-standard residue; d: D form. 2Nal = N[C@@H](Cc1ccc2ccccc2c1)C(=O)O; Cit = NC(=O)NCCC[C@H](N)C(=O)O
# Biological target: human CXCR4 (human, UniProt P61073 1-352)
# Assay: cell-based or functional assay
# Sequence of human CXCR4 (P61073 whole entry): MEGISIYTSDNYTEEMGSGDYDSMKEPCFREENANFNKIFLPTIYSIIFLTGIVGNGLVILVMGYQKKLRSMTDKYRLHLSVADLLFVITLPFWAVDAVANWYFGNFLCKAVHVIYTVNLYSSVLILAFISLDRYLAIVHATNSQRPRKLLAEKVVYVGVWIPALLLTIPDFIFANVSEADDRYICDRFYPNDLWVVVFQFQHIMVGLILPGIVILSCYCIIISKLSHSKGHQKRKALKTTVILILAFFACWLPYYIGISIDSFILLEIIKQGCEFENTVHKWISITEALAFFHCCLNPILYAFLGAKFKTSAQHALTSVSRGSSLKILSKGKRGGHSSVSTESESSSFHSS
IC50 (nM) Ca2+ assay (method 2) [nM],IC50 (nM) Ca2+ assay (method 1) [nM],Binder
4.3,,cyclo(YRDCRG[dP]RR[2Nal]CYQK[dP]P) (disulfide 4-11; SMILES N=C(N)NCCC[C@@H]1NC(=O)[C@@H]2CSSC[C@H](NC(=O)[C@H](Cc3ccc4ccccc4c3)NC(=O)[C@H](CCCNC(=N)N)NC(=O)[C@H](CCCNC(=N)N)NC(=O)[C@H]3CCCN3C(=O)CNC1=O)C(=O)N[C@@H](Cc1ccc(O)cc1)C(=O)N[C@@H](CCC(N)=O)C(=O)N[C@@H](CCCCN)C(=O)N1CCC[C@@H]1C(=O)N1CCC[C@H]1C(=O)N[C@@H](Cc1ccc(O)cc1)C(=O)N[C@@H](CCCNC(=N)N)C(=O)N[C@@H](CC(=O)O)C(=O)N2) [Example 93]
4.3,,cyclo(YRLCRG[dP]RR[2Nal]CYQK[dP]P) (disulfide 4-11; SMILES CC(C)C[C@@H]1NC(=O)[C@H](CCCNC(=N)N)NC(=O)[C@H](Cc2ccc(O)cc2)NC(=O)[C@@H]2CCCN2C(=O)[C@H]2CCCN2C(=O)[C@H](CCCCN)NC(=O)[C@H](CCC(N)=O)NC(=O)[C@H](Cc2ccc(O)cc2)NC(=O)[C@@H]2CSSC[C@H](NC1=O)C(=O)N[C@@H](CCCNC(=N)N)C(=O)NCC(=O)N1CCC[C@@H]1C(=O)N[C@@H](CCCNC(=N)N)C(=O)N[C@@H](CCCNC(=N)N)C(=O)N[C@@H](Cc1ccc3ccccc3c1)C(=O)N2) [Example 97]
3,,cyclo(YRSCRG[dP]RR[2Nal]CYQK[dP]P) (disulfide 4-11; SMILES N=C(N)NCCC[C@@H]1NC(=O)[C@@H]2CSSC[C@H](NC(=O)[C@H](Cc3ccc4ccccc4c3)NC(=O)[C@H](CCCNC(=N)N)NC(=O)[C@H](CCCNC(=N)N)NC(=O)[C@H]3CCCN3C(=O)CNC1=O)C(=O)N[C@@H](Cc1ccc(O)cc1)C(=O)N[C@@H](CCC(N)=O)C(=O)N[C@@H](CCCCN)C(=O)N1CCC[C@@H]1C(=O)N1CCC[C@H]1C(=O)N[C@@H](Cc1ccc(O)cc1)C(=O)N[C@@H](CCCNC(=N)N)C(=O)N[C@@H](CO)C(=O)N2) [Example 96]
,3730,cyclo(YR[Cit]FR[Cit]PRR[2Nal]VY[Cit]K[dP]P) (SMILES CC(C)[C@@H]1NC(=O)[C@H](Cc2ccc3ccccc3c2)NC(=O)[C@H](CCCNC(=N)N)NC(=O)[C@H](CCCNC(=N)N)NC(=O)[C@@H]2CCCN2C(=O)[C@H](CCCNC(N)=O)NC(=O)[C@H](CCCNC(=N)N)NC(=O)[C@H](Cc2ccccc2)NC(=O)[C@H](CCCNC(N)=O)NC(=O)[C@H](CCCNC(=N)N)NC(=O)[C@H](Cc2ccc(O)cc2)NC(=O)[C@@H]2CCCN2C(=O)[C@H]2CCCN2C(=O)[C@H](CCCCN)NC(=O)[C@H](CCCNC(N)=O)NC(=O)[C@H](Cc2ccc(O)cc2)NC1=O) [Example 20]
2.1,,cyclo(MR[Cit]CRG[dP]RR[2Nal]CYQK[dP]P) (disulfide 4-11; SMILES CSCC[C@@H]1NC(=O)[C@@H]2CCCN2C(=O)[C@H]2CCCN2C(=O)[C@H](CCCCN)NC(=O)[C@H](CCC(N)=O)NC(=O)[C@H](Cc2ccc(O)cc2)NC(=O)[C@@H]2CSSC[C@H](NC(=O)[C@H](CCCNC(N)=O)NC(=O)[C@H](CCCNC(=N)N)NC1=O)C(=O)N[C@@H](CCCNC(=N)N)C(=O)NCC(=O)N1CCC[C@@H]1C(=O)N[C@@H](CCCNC(=N)N)C(=O)N[C@@H](CCCNC(=N)N)C(=O)N[C@@H](Cc1ccc3ccccc3c1)C(=O)N2) [Example 91]
19.5,,cyclo(VR[Cit]CRG[dP]RR[2Nal]CYQK[dP]P) (disulfide 4-11; SMILES CC(C)[C@@H]1NC(=O)[C@@H]2CCCN2C(=O)[C@H]2CCCN2C(=O)[C@H](CCCCN)NC(=O)[C@H](CCC(N)=O)NC(=O)[C@H](Cc2ccc(O)cc2)NC(=O)[C@@H]2CSSC[C@H](NC(=O)[C@H](CCCNC(N)=O)NC(=O)[C@H](CCCNC(=N)N)NC1=O)C(=O)N[C@@H](CCCNC(=N)N)C(=O)NCC(=O)N1CCC[C@@H]1C(=O)N[C@@H](CCCNC(=N)N)C(=O)N[C@@H](CCCNC(=N)N)C(=O)N[C@@H](Cc1ccc3ccccc3c1)C(=O)N2) [Example 90]
2.9,,cyclo(YRACRG[dP]RR[2Nal]CYQK[dP]P) (disulfide 4-11; SMILES C[C@@H]1NC(=O)[C@H](CCCNC(=N)N)NC(=O)[C@H](Cc2ccc(O)cc2)NC(=O)[C@@H]2CCCN2C(=O)[C@H]2CCCN2C(=O)[C@H](CCCCN)NC(=O)[C@H](CCC(N)=O)NC(=O)[C@H](Cc2ccc(O)cc2)NC(=O)[C@@H]2CSSC[C@H](NC1=O)C(=O)N[C@@H](CCCNC(=N)N)C(=O)NCC(=O)N1CCC[C@@H]1C(=O)N[C@@H](CCCNC(=N)N)C(=O)N[C@@H](CCCNC(=N)N)C(=O)N[C@@H](Cc1ccc3ccccc3c1)C(=O)N2) [Example 95]
1.1,,cyclo(YRNCRG[dP]RR[2Nal]CYQK[dP]P) (disulfide 4-11; SMILES N=C(N)NCCC[C@@H]1NC(=O)[C@@H]2CSSC[C@H](NC(=O)[C@H](Cc3ccc4ccccc4c3)NC(=O)[C@H](CCCNC(=N)N)NC(=O)[C@H](CCCNC(=N)N)NC(=O)[C@H]3CCCN3C(=O)CNC1=O)C(=O)N[C@@H](Cc1ccc(O)cc1)C(=O)N[C@@H](CCC(N)=O)C(=O)N[C@@H](CCCCN)C(=O)N1CCC[C@@H]1C(=O)N1CCC[C@H]1C(=O)N[C@@H](Cc1ccc(O)cc1)C(=O)N[C@@H](CCCNC(=N)N)C(=O)N[C@@H](CC(N)=O)C(=O)N2) [Example 92]
3.5,,cyclo(YR[Cit]CRG[dP]RR[2Nal]CYQS[dP]P) (disulfide 4-11; SMILES N=C(N)NCCC[C@@H]1NC(=O)[C@@H]2CSSC[C@H](NC(=O)[C@H](Cc3ccc4ccccc4c3)NC(=O)[C@H](CCCNC(=N)N)NC(=O)[C@H](CCCNC(=N)N)NC(=O)[C@H]3CCCN3C(=O)CNC1=O)C(=O)N[C@@H](Cc1ccc(O)cc1)C(=O)N[C@@H](CCC(N)=O)C(=O)N[C@@H](CO)C(=O)N1CCC[C@@H]1C(=O)N1CCC[C@H]1C(=O)N[C@@H](Cc1ccc(O)cc1)C(=O)N[C@@H](CCCNC(=N)N)C(=O)N[C@@H](CCCNC(N)=O)C(=O)N2) [Example 87]
2.7,,cyclo(YR[Cit]CRG[dP]RR[2Nal]CYQD[dP]P) (disulfide 4-11; SMILES N=C(N)NCCC[C@@H]1NC(=O)[C@@H]2CSSC[C@H](NC(=O)[C@H](Cc3ccc4ccccc4c3)NC(=O)[C@H](CCCNC(=N)N)NC(=O)[C@H](CCCNC(=N)N)NC(=O)[C@H]3CCCN3C(=O)CNC1=O)C(=O)N[C@@H](Cc1ccc(O)cc1)C(=O)N[C@@H](CCC(N)=O)C(=O)N[C@@H](CC(=O)O)C(=O)N1CCC[C@@H]1C(=O)N1CCC[C@H]1C(=O)N[C@@H](Cc1ccc(O)cc1)C(=O)N[C@@H](CCCNC(=N)N)C(=O)N[C@@H](CCCNC(N)=O)C(=O)N2) [Example 85]
2.5,,cyclo(YRKCRG[dP]RR[2Nal]CYQK[dP]P) (disulfide 4-11; SMILES N=C(N)NCCC[C@@H]1NC(=O)[C@@H]2CSSC[C@H](NC(=O)[C@H](Cc3ccc4ccccc4c3)NC(=O)[C@H](CCCNC(=N)N)NC(=O)[C@H](CCCNC(=N)N)NC(=O)[C@H]3CCCN3C(=O)CNC1=O)C(=O)N[C@@H](Cc1ccc(O)cc1)C(=O)N[C@@H](CCC(N)=O)C(=O)N[C@@H](CCCCN)C(=O)N1CCC[C@@H]1C(=O)N1CCC[C@H]1C(=O)N[C@@H](Cc1ccc(O)cc1)C(=O)N[C@@H](CCCNC(=N)N)C(=O)N[C@@H](CCCCN)C(=O)N2) [Example 94]
0.5,,cyclo(SR[Cit]CRG[dP]RR[2Nal]CYQK[dP]P) (disulfide 4-11; SMILES N=C(N)NCCC[C@@H]1NC(=O)[C@@H]2CSSC[C@H](NC(=O)[C@H](Cc3ccc4ccccc4c3)NC(=O)[C@H](CCCNC(=N)N)NC(=O)[C@H](CCCNC(=N)N)NC(=O)[C@H]3CCCN3C(=O)CNC1=O)C(=O)N[C@@H](Cc1ccc(O)cc1)C(=O)N[C@@H](CCC(N)=O)C(=O)N[C@@H](CCCCN)C(=O)N1CCC[C@@H]1C(=O)N1CCC[C@H]1C(=O)N[C@@H](CO)C(=O)N[C@@H](CCCNC(=N)N)C(=O)N[C@@H](CCCNC(N)=O)C(=O)N2) [Example 89]
0.69,,cyclo(YR[Cit]CRG[dP]RR[2Nal]CYQA[dP]P) (disulfide 4-11; SMILES C[C@@H]1NC(=O)[C@H](CCC(N)=O)NC(=O)[C@H](Cc2ccc(O)cc2)NC(=O)[C@@H]2CSSC[C@H](NC(=O)[C@H](CCCNC(N)=O)NC(=O)[C@H](CCCNC(=N)N)NC(=O)[C@H](Cc3ccc(O)cc3)NC(=O)[C@@H]3CCCN3C(=O)[C@H]3CCCN3C1=O)C(=O)N[C@@H](CCCNC(=N)N)C(=O)NCC(=O)N1CCC[C@@H]1C(=O)N[C@@H](CCCNC(=N)N)C(=O)N[C@@H](CCCNC(=N)N)C(=O)N[C@@H](Cc1ccc3ccccc3c1)C(=O)N2) [Example 86]
2.5,,cyclo(DR[Cit]CRG[dP]RR[2Nal]CYQK[dP]P) (disulfide 4-11; SMILES N=C(N)NCCC[C@@H]1NC(=O)[C@@H]2CSSC[C@H](NC(=O)[C@H](Cc3ccc4ccccc4c3)NC(=O)[C@H](CCCNC(=N)N)NC(=O)[C@H](CCCNC(=N)N)NC(=O)[C@H]3CCCN3C(=O)CNC1=O)C(=O)N[C@@H](Cc1ccc(O)cc1)C(=O)N[C@@H](CCC(N)=O)C(=O)N[C@@H](CCCCN)C(=O)N1CCC[C@@H]1C(=O)N1CCC[C@H]1C(=O)N[C@@H](CC(=O)O)C(=O)N[C@@H](CCCNC(=N)N)C(=O)N[C@@H](CCCNC(N)=O)C(=O)N2) [Example 88]
